Measured values published in patent publication US10759836B2, “Cancer vaccine compositions and methods of use thereof” (UNIVERSITY OF WASHINGTON, priority 2014, dated 2020).
Entries after “also recorded” stand apart in the source; their conditions may differ.

B1: PRL3: peptide vaccine of PRL-3 #1, #2, #3, #4, #29, 50 ug per peptide with CFA/IFA (peptide)
chain 1: VSYKHMRFLITHNPTNATL
chain 2: FIEDLKKYGATTVVRVCEVTY
chain 3: PCVAGLGRAPVLVALALIES
chain 4: MKYEDAIQFIRQKRRGAIN
chain 5: VEDWLSLVKAKFCEA
modifications: with CFA/IFA adjuvant
notes: peptide vaccine of PRL-3 #1, #2, #3, #4, #29, 50 ug per peptide with CFA/IFA
B2: RCAS1: peptide vaccine of RCAS1 #13, #14, #21, #30, #31, 50 ug per peptide with CFA/IFA (peptide)
chain 1: EPDYFKDMTPTIRKTQKIVI
chain 2: DYFKDMTPTIRKTQKIVIKKR
chain 3: LFKFCTCLATVFSFLKRLIC
chain 4: GFSSRLAATQDLPFIHQSSELGD
chain 5: EEEDAAWQAEEVLRQQKLADR
modifications: with CFA/IFA adjuvant
notes: peptide vaccine of RCAS1 #13, #14, #21, #30, #31, 50 ug per peptide with CFA/IFA
B3: VCP: peptide vaccine of VCP #18, #19, #20, #23, 50 ug per peptide with CFA/IFA (peptide)
chain 1: IRMNRVVRNNLRVRLGDVISI
chain 2: LQLFRGDTVLLKGKKRR
chain 3: YFLEAYRPIRKGDIFLVRG
chain 4: VEFKVVETDPSPYCIVAPDT
modifications: with CFA/IFA adjuvant
notes: peptide vaccine of VCP #18, #19, #20, #23, 50 ug per peptide with CFA/IFA

What was measured:
[1] = tested on: small bowel tumor burden in APCmin mice; experiment: APCmin mouse model: small bowel tumor count after peptide vaccination; assay type: in vivo; details: for effect on small bowel tumor burden (tumor count): APCmin mice, vs CFA/IFA control, 50 ug per peptide s.c.; for peptide efficacy, APCmin Small Bowel (Spontaneous): summary table, Yes/No
Procedure: (§1) Offspring from APCmin were genotyped by PCR for the presence of the Min mutation using primers as follows: Wild-Type: 5′-[…]-3′ (SEQ ID NO: 46), Common 5′-[…]-3′ (SEQ ID NO: 47), Mutant: 5′-[…]-3′ (SEQ ID NO: 48). Both male and female mice testing positive for the Min mutation were included in the study and randomized into groups.
(§2) At 4-6 weeks of age, mice were immunized in CFA/IFA, PBS, and vaccine groups. Each group received subcutaneous injections (100 ul PBS, 50 ul CFA with 50 ul PBS, 50 ug per peptide with 50 ul CFA) once every 7-10 days for a total of three doses and one booster was given 4-5 weeks after the third vaccine. See Table 5 for peptides included in vaccine compositions. CFA was replaced with IFA after the first vaccine. All mice were sacrificed at 14 to 17 weeks of age, the gastrointestinal tracts were collected and tumors counted.

[2] = tested on: colon tumor burden in APCmin mice; experiment: APCmin mouse model: colon tumor count after peptide vaccination; assay type: in vivo; details: for effect on colon tumor burden (tumor count): APCmin mice, vs CFA/IFA control, 50 ug per peptide s.c.; for peptide efficacy, APCmin Colon (Spontaneous): summary table, Yes/No
Procedure: as §1, §2

[3] = tested on: small bowel tumor burden in APCmin mice; experiment: APCmin survival study: small bowel tumor count at sacrifice; assay type: in vivo; details: boosters every 4-5 weeks, vs CFA/IFA
Procedure: At 4-6 weeks of age, mice were immunized with CFA/IFA, PBS, and vaccine groups. Each group received subcutaneous injections (100 ul PBS, 50 ul CFA with 50 ul PBS, 50 ug per peptide with 50 ul CFA) once every 7-10 days for a total of three doses and a booster vaccine was given every 4-5 weeks after the third vaccine. See Table 6 for peptides included in vaccine compositions. CFA was replaced with IFA after the first vaccine. […] At sacrifice, small intestines were collected and small bowel tumors counted.

[4] = tested on: colon tumor burden in AOM mice (Azoxymethane + FVB); experiment: AOM mouse model: colon tumor count after peptide vaccination; assay type: in vivo; details: for effect on colon tumor burden (tumor count): AOM treated FVB mice, vs control group (CFA/IFA; PBS for IGF1R, PRL3, RCAS1); for peptide efficacy, Azoxymethane + FVB (Induced): summary table, Yes/No
Procedure: AOM mouse in-vivo experiments. At 6 weeks of age, FVB mice were immunized in CFA/IFA, PBS, and vaccine groups. Each group received subcutaneous injections (100 ul PBS, 50 ul CFA with 50 ul PBS, 50 ug per peptide with 50 ul CFA) once every 10-14 days for a total of three doses and a booster was given every 4-5 weeks after the third vaccine. See Table 7 for peptides included in vaccine compositions. CFA was replaced with IFA after the first vaccine. Seven days after the third vaccine, mice were injected with Azoxymethane (AOM) at 10 mg/kg, twice weekly for 6 weeks. At 26 weeks of age, all mice were sacrificed and tumors in the colon were counted.

[5] = tested on: MC-38 cells (murine adenocarcinoma); experiment: MC-38 tumor implant model: tumor volume after peptide vaccination; assay type: in vivo, C57Bl/6 mice; details: for effect on tumor volume: MC-38 tumor implant in C57Bl/6 mice, vs CFA/IFA; for peptide efficacy, MC-38 + B6 (Tumor Implant): summary table, Yes/No
Procedure: MC-38 tumor implant in-vivo experiments. At 6 weeks of age, mice were immunized in CFA/IFA, PBS, and vaccine groups. Each group received subcutaneous injections (100 ul PBS, 50 ul CFA with 50 ul PBS, 50 ug per peptide with 50 ul CFA) once every 10-14 days for a total of three doses. See Table 9 for peptides included in vaccine compositions. CFA was replaced with IFA for the second and third vaccines. Two weeks after the final vaccine, we subcutaneously implanted 4×10^4 MC-38 cells (murine adenocarcinoma), and measured tumor growth with Vernier calipers 2-3 times per week. Tumor volume was calculated as length×width×height×π/6, which is the standard volume calculation of an ellipsoid. Mice were sacrificed when tumor size in control mice reached greater than 1000 mm^3.

Row | Molecule | effect on small bowel tumor burden (tumor count) [1] | peptide efficacy, APCmin Small Bowel (Spontaneous) [1] | effect on colon tumor burden (tumor count) [2] | peptide efficacy, APCmin Colon (Spontaneous) [2] | effect on small bowel tumor burden (tumor count) [3] | effect on colon tumor burden (tumor count) [4] | peptide efficacy, Azoxymethane + FVB (Induced) [4] | effect on tumor volume [5] | peptide efficacy, MC-38 + B6 (Tumor Implant) [5]
1 | B1 | vaccine efficacy; also recorded: significantly inhibits | Yes | lack of PRL3 vaccine efficacy; also recorded: does not significantly inhibit | No | does not significantly inhibit | lack of PRL3 vaccine efficacy; also recorded: does not significantly inhibit | No | significantly inhibits | Yes
2 | B2 | vaccine efficacy; also recorded: significantly inhibits | Yes | lack of RCAS1 vaccine efficacy; also recorded: does not significantly inhibit | No | – | lack of RCAS1 vaccine efficacy; also recorded: do not significantly inhibit | No | significantly inhibits | Yes
3 | B3 | vaccine efficacy; also recorded: significantly inhibits | Yes | vaccine efficacy; also recorded: significantly inhibits | Yes | – | lack of VCP vaccine efficacy; also recorded: does not significantly inhibit | No | does not significantly inhibit | No
